Residue numbers refer to the chain shown, from its start.
B1: PG102 wild-type recombinant antibody (antibody, human IgG4 S228P, kappa, V domains shown)
VH: QVKLQESGPGLVKPSETLSITCTVSGFSLSRYSVYWIRQPPGKGPEWMGMMWGGGSTDYSTSLKSRLTISKDTSKSQVSLKMNSLRTDDTAMYYCVRTDGDYWGQGTTVTVSS
VL: ELQLTQSPLSLPVTLGQPASISCRSSQSLANSNGNTYLHWYLQRPGQSPRLLIYKVSNRFSGVPDRFSGSGSGTDFTLKISRVEAEDVGVYYCSQSTHVPWTFGGGTKLEIKR
notes: Human IgG4pro(deltaK) heavy, kappa light; also called PG102_Wt; PG102 wt
B2: PG102_Var8 (antibody, human IgG4 S228P, kappa, V domains shown)
VH: QVQLVESGGGLVKPGGSLRLSCAVSGFSLSRYSVYWIRQAPGKGLEWMGMMWGGGSTDYSTSVKGRFTISKDNAKTSVYLQMSSLRAEDTAVYYCVRTDGDYWGQGTLVTVSS
VL: B1 VL with N31S, N33Q
notes: IgG4pro(deltaK)/kappa; also called FFP104_Var8
B3: PG102_Var5 (antibody, human IgG4 S228P, kappa, V domains shown)
VH: B1 VH with K3Q, N83S, R86T, T87A, D88A, M92V, T108L
VL: B1 VL with N31S, N33Q
notes: IgG4pro(deltaK)/kappa; also called FFP104_Var5
B4: PG102_Var7 (antibody, human IgG4 S228P, kappa, V domains shown)
VH: QVQLQESGPGLVKPSQTLSLTCTVSGFSLSRYSVYWVRQPPGKGLEWIGMMWGGGSTDYNPSLKSRLTISKDTSKSQVSLKLSSLTAADTAVYYCVRTDGDYWGQGTLVTVSS
VL: B1 VL with N31S, N33Q
notes: IgG4pro(deltaK)/kappa; also called FFP104_Var7
B5: PG102_Var16 (antibody, human IgG4 S228P, kappa, V domains shown)
VH: B2 VH
VL: B1 VL with E1D, L2I, Q3V, L4M, L15P, N31S, N33Q, R44K
notes: IgG4pro(deltaK)/kappa; also called FFP104_Var16
B6: PG102_Var15 (antibody, human IgG4 S228P, kappa, V domains shown)
VH: B4 VH
VL: B1 VL with E1D, L2I, Q3V, L4M, L15P, N31S, N33Q, R44K
notes: IgG4pro(deltaK)/kappa; also called FFP104_Var15
B7: PG102_Var3 (antibody, human IgG4 S228P, kappa, V domains shown)
VH: B4 VH
VL: B1 VL with N31S, N33S
notes: IgG4pro(deltaK)/kappa; also called FFP104_Var3
B8: PG102_Var1 (antibody, human IgG4 S228P, kappa, V domains shown)
VH: B1 VH with K3Q, N83S, R86T, T87A, D88A, M92V, T108L
VL: B1 VL with N31S, N33S
notes: IgG4pro(deltaK)/kappa; also called FFP104_Var1
B9: PG102_Var4 (antibody, human IgG4 S228P, kappa, V domains shown)
VH: B2 VH
VL: B1 VL with N31S, N33S
notes: IgG4pro(deltaK)/kappa; also called FFP104_Var4
B10: PG102_Var13 (antibody, human IgG4 S228P, kappa, V domains shown)
VH: B1 VH with K3Q, N83S, R86T, T87A, D88A, M92V, T108L
VL: B1 VL with E1D, L2I, Q3V, L4M, L15P, N31S, N33Q, R44K
notes: IgG4pro(deltaK)/kappa; also called FFP104_Var13
B11: PG102_Var9 (antibody, human IgG4 S228P, kappa, V domains shown)
VH: B1 VH with K3Q, N83S, R86T, T87A, D88A, M92V, T108L
VL: B1 VL with N31D, N33Q
notes: IgG4pro(deltaK)/kappa; also called FFP104_Var9
B12: PG102_Var6 (antibody, human IgG4 S228P, kappa, V domains shown)
VH: B4 VH with Q16E, L20I, I48M, N60S, P61T, L82M
VL: B1 VL with N31S, N33Q
notes: IgG4pro(deltaK)/kappa; also called FFP104_Var6
B13: PG102_Var11 (antibody, human IgG4 S228P, kappa, V domains shown)
VH: B4 VH
VL: B1 VL with N31D, N33Q
notes: IgG4pro(deltaK)/kappa; also called FFP104_Var11
B14: PG102_Var12 (antibody, human IgG4 S228P, kappa, V domains shown)
VH: B2 VH
VL: B1 VL with N31D, N33Q
notes: IgG4pro(deltaK)/kappa; also called FFP104_Var12
B15: PG102_Var14 (antibody, human IgG4 S228P, kappa, V domains shown)
VH: B4 VH with Q16E, L20I, I48M, N60S, P61T, L82M
VL: B1 VL with E1D, L2I, Q3V, L4M, L15P, N31S, N33Q, R44K
notes: IgG4pro(deltaK)/kappa; also called FFP104_Var14
B16: PG102_Var2 (antibody, human IgG4 S228P, kappa, V domains shown)
VH: B4 VH with Q16E, L20I, I48M, N60S, P61T, L82M
VL: B1 VL with N31S, N33S
notes: IgG4pro(deltaK)/kappa; also called FFP104_Var2
B17: PG102_Var10 (antibody, human IgG4 S228P, kappa, V domains shown)
VH: B4 VH with Q16E, L20I, I48M, N60S, P61T, L82M
VL: B1 VL with N31D, N33Q
notes: IgG4pro(deltaK)/kappa; also called FFP104_Var10

These binders were tested against T1, recombinant CD40 (human, UniProt P25942 21-193, limits assumed) (assay: ELISA, plates coated with recombinant CD40, AP-conjugated anti-human kappa detection; effective concentration in supernatant read on a PG102 reference curve).
T1 construct: the ELISA method itself names no species or construct; also called antigen CD40
T1 sequence (P25942 21-193 limits assumed): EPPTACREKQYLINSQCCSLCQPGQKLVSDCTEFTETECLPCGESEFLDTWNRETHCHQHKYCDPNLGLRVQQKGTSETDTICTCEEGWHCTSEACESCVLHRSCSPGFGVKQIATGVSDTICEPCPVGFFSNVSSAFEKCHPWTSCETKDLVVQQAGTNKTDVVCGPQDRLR
Protocol: Binding of the antibody variants to CD40 was measured using an ELISA based assay based on UKSL-2057. Microtiter plates were coated with recombinant CD40 before the antibody variants were added and detected using an alkaline phosphatase conjugated antihuman kappa IgG.
Samples were then prepared and analyzed The results were converted to effective concentrations in the clarified supernatant […] This assay provides an assessment of the affinity of the antibody variants for CD40.
A CD40 binding of 14.6 mg/L was found for B1 in this work. A CD40 binding of 23.5 mg/L was found for B2 in this work. A CD40 binding of 34.9 mg/L was found for B3 in this work. A CD40 binding of 33.6 mg/L was found for B4 in this work. A CD40 binding of 20.7 mg/L was found for B5 in this work. A CD40 binding of 29.4 mg/L was found for B6 in this work. A CD40 binding of 38.5 mg/L was found for B7 in this work. A CD40 binding of 34.9 mg/L was found for B8 in this work. A CD40 binding of 29.5 mg/L was found for B9 in this work. A CD40 binding of 22.8 mg/L was found for B10 in this work. A CD40 binding of 17 mg/L was found for B11 in this work. A CD40 binding of 39.7 mg/L was found for B12 in this work. A CD40 binding of 12.6 mg/L was found for B13 in this work. A CD40 binding of 2.35 mg/L was found for B14 in this work. A CD40 binding of 23 mg/L was found for B15 in this work. A CD40 binding of 30.1 mg/L was found for B16 in this work. A CD40 binding of 4.35 mg/L was found for B17 in this work.

The binders below were run against CD40 on peripheral blood mononuclear cells (PBMC) from healthy donors (human, UniProt P25942 21-277) (assay: cell-based or functional assay).
CD40 on peripheral blood mononuclear cells (PBMC) from healthy donors, sequence (P25942 21-277): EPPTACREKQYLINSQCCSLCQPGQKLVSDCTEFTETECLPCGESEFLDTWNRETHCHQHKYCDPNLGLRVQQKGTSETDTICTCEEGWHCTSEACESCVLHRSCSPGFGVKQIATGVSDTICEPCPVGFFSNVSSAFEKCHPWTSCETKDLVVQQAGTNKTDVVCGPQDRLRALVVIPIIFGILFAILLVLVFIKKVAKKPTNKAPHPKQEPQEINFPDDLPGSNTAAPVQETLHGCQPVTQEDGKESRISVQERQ
B1 was tested, and the “Percentage inhibition of TNF secretion at 1 ng/ml” value (from here on “Percentage inhibition … at 1 ng/ml”) was -5.2% and the “Percentage inhibition of TNF secretion at 10 ng/ml” value (“Percentage inhibition … at 10 ng/ml” for short) was 81.2%. In the case of B3, the “Percentage inhibition … at 1 ng/ml” value is reported as 22.5% and the “Percentage inhibition … at 10 ng/ml” value is reported as 87.4%. With B7 the “Percentage inhibition … at 1 ng/ml” value was 16.1% and the “Percentage inhibition … at 10 ng/ml” value was 88.5%. B8 was tested, and the “Percentage inhibition … at 1 ng/ml” value was -0.9% and the “Percentage inhibition … at 10 ng/ml” value was 81.8%. For B12, the “Percentage inhibition … at 1 ng/ml” value was 16.6% and the “Percentage inhibition … at 10 ng/ml” value was 86%. With B15 the “Percentage inhibition … at 1 ng/ml” value was 21.8% and the “Percentage inhibition … at 10 ng/ml” value was 85.5%. In the case of B16, the “Percentage inhibition … at 1 ng/ml” value is reported as 20.2% and the “Percentage inhibition … at 10 ng/ml” value is reported as 87.2%. In the case of B17, the “Percentage inhibition … at 1 ng/ml” value is reported as 14.4% and the “Percentage inhibition … at 10 ng/ml” value is reported as 75.8%.
